Source: patent US20230346897A1

Biological target: human amyloid Aβ40 (human) (UniProt P05067)

With “human plasminogen purified from the plasma of human donors (enzyme)” the amount of Aβ40 left (Tricine-SDS-PAGE, quantitative scanning; solvent control defined as 100%) after 3 h at 37 °C in rabbit cerebrospinal fluid was 74.8%.
